This data set deals with the molecule itself. The experiment in a line: AUC.

B1: VapB22 antitoxin (Rv2830c) from Mycobacterium tuberculosis, expressed alone from pET28b (natural protein)
chain: MTATEVKAKILSLLDEVAQGEEIEITKHGRTVARLVAATGPHALKGRFSGVAMAAADDDELFTTGVSWNVS
Consider B1, for which the “stoichiometry N” value was 2.

(Values after publication PMC7269643 (Science Advances, 2020).)
